Measured values taken from US20220031857A1.

Legend:
[1] = target: recombinant mouse TfR1 (transferrin receptor 1) (mouse) (UniProt Q62351); assay: SPR (Biacore), single-cycle kinetics, His-tagged TfR1 captured, VNAR-Fc injected
[2] = target: recombinant human TfR1 (transferrin receptor 1) (human) (UniProt P02786); assay: as above
[3] = target: recombinant mouse TfR1 (transferrin receptor 1) (mouse) (UniProt Q62351); assay: Octet, mouse TfR1 immobilised on biosensors; row buffer (no first antibody), column cont. (taken as the control VNAR F02)
[4] = target: recombinant mouse TfR1 (transferrin receptor 1) (mouse) (UniProt Q62351); assay: Octet, mouse TfR1 on anti-His biosensors, analyte 10 nM, PBS pH 7.2
[5] = target: recombinant human TfR1 (transferrin receptor 1) (human) (UniProt P02786); assay: Octet, human TfR1 immobilised on biosensors; row buffer (no first antibody), column cont. (taken as the control VNAR F02)
[6] = target: recombinant human TfR1 (transferrin receptor 1) (human) (UniProt P02786); assay: ELISA on coated human TfR1, purified VNAR-Fc
[7] = target: recombinant human TfR1 (transferrin receptor 1) (human) (UniProt P02786); assay: Octet, human TfR1 immobilised; 8D3 as first antibody, which does not bind human TfR1 (grey column); white cell; cont. taken as the control VNAR F02
[8] = target: recombinant human TfR1 (transferrin receptor 1) (human) (UniProt P02786); assay: ELISA, plate coated with 1 µg/ml recombinant human TfR1, purified VNAR-Fc titrated, 4-parameter fit
[9] = target: recombinant mouse TfR1 (transferrin receptor 1) (mouse) (UniProt Q62351); assay: Octet, mouse TfR1 on anti-His biosensors, analyte 10 nM, PBS pH 6.0
[10] = target: recombinant mouse TfR1 (transferrin receptor 1) (mouse) (UniProt Q62351); assay: ELISA, plate coated with 1 µg/ml recombinant mouse TfR1, purified VNAR-Fc titrated, 4-parameter fit
[11] = target: recombinant mouse TfR1 (transferrin receptor 1) (mouse) (UniProt Q62351); assay: ELISA on coated mouse TfR1, purified VNAR-Fc

recombinant mouse TfR1 (transferrin receptor 1) (mouse), sequence (Q62351 89-763 limits assumed): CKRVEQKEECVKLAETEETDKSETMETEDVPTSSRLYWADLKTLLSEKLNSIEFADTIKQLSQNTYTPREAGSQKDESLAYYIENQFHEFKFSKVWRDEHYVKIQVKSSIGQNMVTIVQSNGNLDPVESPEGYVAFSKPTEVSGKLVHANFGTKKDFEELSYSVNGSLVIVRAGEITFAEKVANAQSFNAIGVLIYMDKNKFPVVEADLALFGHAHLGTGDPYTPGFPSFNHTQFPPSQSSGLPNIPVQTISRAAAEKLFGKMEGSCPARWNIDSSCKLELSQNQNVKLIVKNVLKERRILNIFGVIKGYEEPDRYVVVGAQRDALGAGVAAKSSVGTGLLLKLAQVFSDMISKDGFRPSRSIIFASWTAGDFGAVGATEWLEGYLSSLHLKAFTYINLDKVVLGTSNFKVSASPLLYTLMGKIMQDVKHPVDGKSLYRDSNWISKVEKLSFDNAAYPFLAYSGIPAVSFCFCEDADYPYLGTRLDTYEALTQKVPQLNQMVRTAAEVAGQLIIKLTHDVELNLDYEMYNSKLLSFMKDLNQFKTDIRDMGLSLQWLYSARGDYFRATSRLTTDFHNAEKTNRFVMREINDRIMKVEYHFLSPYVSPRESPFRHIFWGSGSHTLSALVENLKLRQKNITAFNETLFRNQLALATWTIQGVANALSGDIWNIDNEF
recombinant human TfR1 (transferrin receptor 1) (human), sequence (P02786 89-760 limits assumed): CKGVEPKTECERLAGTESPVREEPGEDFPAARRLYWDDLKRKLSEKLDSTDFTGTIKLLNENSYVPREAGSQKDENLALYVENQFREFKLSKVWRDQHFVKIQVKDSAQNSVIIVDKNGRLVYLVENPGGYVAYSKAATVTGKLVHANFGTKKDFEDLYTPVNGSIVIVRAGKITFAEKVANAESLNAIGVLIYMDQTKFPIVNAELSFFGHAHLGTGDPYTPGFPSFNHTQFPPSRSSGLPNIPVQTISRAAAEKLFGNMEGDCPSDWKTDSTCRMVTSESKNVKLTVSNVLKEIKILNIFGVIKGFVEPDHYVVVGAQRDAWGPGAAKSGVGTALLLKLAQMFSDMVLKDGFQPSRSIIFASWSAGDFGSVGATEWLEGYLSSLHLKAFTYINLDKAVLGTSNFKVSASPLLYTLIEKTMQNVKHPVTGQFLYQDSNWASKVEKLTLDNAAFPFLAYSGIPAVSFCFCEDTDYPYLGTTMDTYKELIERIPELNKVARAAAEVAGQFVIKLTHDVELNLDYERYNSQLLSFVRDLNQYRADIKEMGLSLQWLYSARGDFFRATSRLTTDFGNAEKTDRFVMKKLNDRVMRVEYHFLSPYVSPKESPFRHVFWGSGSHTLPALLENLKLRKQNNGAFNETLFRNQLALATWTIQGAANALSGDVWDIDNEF

- Kd [1]: 1.46 nM
- koff [1]: 0.00016 s⁻¹
- kon [1]: 109000 M⁻¹ s⁻¹
- Kd [2]: 0.969 nM
- koff [2]: 0.00011 s⁻¹
- kon [2]: 113000 M⁻¹ s⁻¹
- Octet signal as second antibody after buffer [3]: 0.194
- Kd [4]: 0.294 nM
- koff [4]: 9.86e-05 s⁻¹
- kon [4]: 335000 M⁻¹ s⁻¹
- Octet signal as second antibody after buffer [5]: 0.386
- EC50 [6]: 1 nM
- Octet signal as second antibody after 8D3 [7]: 0.381
- EC50 [8]: 3.69 nM
- Kd [9]: 0.344 nM
- koff [9]: 0.000147 s⁻¹
- kon [9]: 426000 M⁻¹ s⁻¹
- EC50 [10]: 38.2 nM
- EC50 [11]: 10 nM
Substance: F02 control VNAR-Fc (Fc fusion)
